Assay results taken from paper PMC7041689.

Assays:
[1] = target: CyPet-XCTK2 (Xenopus) (UniProt P79955); experiment: FRET or BRET
[2] = target: 6His-YPet-XCTK2-Tail (Xenopus) (UniProt P79955); experiment: co-sedimentation
[3] = target: YPet-XCTK2 (Xenopus) (UniProt P79955); experiment: FRET or BRET
[4] = target: microtubules; experiment: co-sedimentation

6His-importin α-YPet (natural protein) gave a fold decrease of Kd with importin β against without importin β [1] of 5 fold.

With importin α-6His (natural protein) the percent decrease of the amount of YPet-XCTK2-Tail bound to MTs (1× importin α/β) [2] was 46% and the percent decrease of the amount of YPet-XCTK2-Tail bound to MTs (4× importin α/β) [2] was 53%.

For importin α-CyPet (natural protein), the mean line scan CyPet lifetime (importin α-CyPet + Ran without YPet 1.68) [3] was 1.55 ns.

B1: 6His-YPet-XCTK2-Tail (domain or fragment)
chain: DSTDKKVQVASRLPVPPKRKYVSNDENQEQMQRKRLRSSLESELPAVRVAASIATSKPRAAPVAALPKPQVIGRQSLAVMRPKNSGPGITSTSFSGKTKVSSSVTQPAAIGAEKKKRAA
B1 showed a fold increase of Kd with 4× importin α/β against no importin α/β [4] of 10 fold.
